The results in this text go back to patent US20200181274A1.

The target in the test is CD123 (interleukin-3 receptor alpha) on CD123-positive human AML cells (KG-1a, Kasumi-3, AML patient blasts) (human) (UniProt P26951). Put plainly: cell-based or functional assay.
Sequence of UniProt P26951 (P26951 19-378): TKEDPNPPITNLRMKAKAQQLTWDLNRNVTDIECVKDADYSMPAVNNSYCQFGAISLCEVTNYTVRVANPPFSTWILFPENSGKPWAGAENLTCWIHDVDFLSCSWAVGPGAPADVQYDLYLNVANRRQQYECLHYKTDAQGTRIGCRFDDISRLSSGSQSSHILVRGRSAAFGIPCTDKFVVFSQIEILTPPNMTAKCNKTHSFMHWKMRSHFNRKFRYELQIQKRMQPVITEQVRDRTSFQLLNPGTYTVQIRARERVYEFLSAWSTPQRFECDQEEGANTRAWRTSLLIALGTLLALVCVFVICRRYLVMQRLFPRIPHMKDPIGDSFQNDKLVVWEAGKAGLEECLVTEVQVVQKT

Regarding “XmAb14045 bispecific anti-CD123 x anti-CD3 Fab-scFv-Fc antibody (bispecific antibody)”, the T cell-dependent cytotoxicity (RTCC) against CD123+ KG-1a cells with human PBMC as effectors, EC50 was found to be 0.28 ng/mL; the T cell-dependent cytotoxicity (RTCC) against CD123+ Kasumi-3 cells with human PBMC as effectors, EC50 was determined as 0.01 ng/mL; the apoptosis (annexin-V positivity) of CD123-expressing KG-1a cells with AML subject-derived PBMC, 48 hours turned out to be 50%; the depletion of putative blast cell population in PBMC of 6 AML subjects, 48 hours is 20 to 90%. The same substance gave a reduction of putative leukemic blast number in AML PBMC, 9 or 90 ng/mL, 48 hours of 80%.
